Patent US20190361034A1

Columns and labels:
[1] = molecular target: MHC class II molecules on MHC class II-expressing Raji cells (human); assay: direct ELISA, plate-immobilised Raji cells; 5% BSA, 2,500 cells; 15.625 ng/ml
[2] = molecular target: MHC class II molecules on MHC class II-expressing Raji cells (human); assay: direct ELISA, plate-immobilised Raji cells; 5% BSA, 2,500 cells; 500 ng/ml
[3] = molecular target: MHC class II molecules on MHC class II-expressing Raji cells (human); assay: transfer cell ELISA, Raji cells; 125 ng/ml; plate row D
[4] = molecular target: MHC class II molecules on MHC class II-expressing Raji cells (human); assay: transfer cell ELISA, Raji cells; 7.813 ng/ml; plate row D
[5] = molecular target: MHC class II molecules on MHC class II-expressing Raji cells (human); assay: direct ELISA, plate-immobilised Raji cells; 5% BSA, 2,500 cells; 62.5 ng/ml
[6] = molecular target: MHC class II molecules on MHC class II-expressing Raji cells (human); assay: transfer cell ELISA, Raji cells; 3.906 ng/ml; plate row D
[7] = molecular target: MHC class II molecules on MHC class II-expressing Raji cells (human); assay: direct ELISA, plate-immobilised Raji cells; 5% BSA, 5,000 cells; 500 ng/ml
[8] = molecular target: MHC class II molecules on MHC class II-expressing Raji cells (human); assay: direct ELISA, plate-immobilised Raji cells; 5% BSA, 5,000 cells; 125 ng/ml
[9] = molecular target: MHC class II molecules on MHC class II-expressing Raji cells (human); assay: transfer cell ELISA, Raji cells; 500 ng/ml; plate row C
[10] = molecular target: MHC class II molecules on MHC class II-expressing Raji cells (human); assay: direct ELISA, plate-immobilised Raji cells; 5% BSA, 10,000 cells; 500 ng/ml
[11] = molecular target: MHC class II molecules on MHC class II-expressing Raji cells (human); assay: direct ELISA, plate-immobilised Raji cells; 10% FBS, 5,000 cells; 500 ng/ml
[12] = molecular target: MHC class II molecules on MHC class II-expressing Raji cells (human); assay: direct ELISA, plate-immobilised Raji cells; 10% FBS, 2,500 cells; 31.25 ng/ml
[13] = molecular target: MHC class II molecules on MHC class II-expressing Raji cells (human); assay: transfer cell ELISA, Raji cells; 62.5 ng/ml; plate row D
[14] = molecular target: MHC class II molecules on MHC class II-expressing Raji cells (human); assay: transfer cell ELISA, Raji cells; 0.977 ng/ml; plate row C
[15] = molecular target: MHC class II molecules on MHC class II-expressing Raji cells (human); assay: transfer cell ELISA, Raji cells; 500 ng/ml; plate row D
[16] = molecular target: MHC class II molecules on MHC class II-expressing Raji cells (human); assay: transfer cell ELISA, Raji cells; 1000 ng/ml; plate row C
[17] = molecular target: MHC class II molecules on MHC class II-expressing Raji cells (human); assay: direct ELISA, plate-immobilised Raji cells; 5% BSA, 10,000 cells; 250 ng/ml
[18] = molecular target: MHC class II molecules on MHC class II-expressing Raji cells (human); assay: transfer cell ELISA, Raji cells; 62.5 ng/ml; plate row C
[19] = molecular target: MHC class II molecules on MHC class II-expressing Raji cells (human); assay: BLI; IMP321 sample diluted from reference standard to 75% binding potency, Raji cells in solution; relative to reference standard
[20] = molecular target: MHC class II molecules on MHC class II-expressing Raji cells (human); assay: transfer cell ELISA, Raji cells; 62.5 ng/ml
[21] = molecular target: MHC class II molecules on MHC class II-expressing Raji cells (human); assay: direct ELISA, plate-immobilised Raji cells; 3% gelatin, 5,000 cells; 500 ng/ml
[22] = molecular target: MHC class II molecules on MHC class II-expressing Raji cells (human); assay: direct ELISA, plate-immobilised Raji cells; 0.5% Casein, 10,000 cells; 125 ng/ml
[23] = molecular target: MHC class II molecules on MHC class II-expressing Raji cells (human); assay: BLI; IMP321 sample diluted from reference standard to 50% binding potency, Raji cells in solution; relative to reference standard
[24] = molecular target: MHC class II molecules on MHC class II-expressing Raji cells (human); assay: direct ELISA, plate-immobilised Raji cells; 3% gelatin, 5,000 cells; 125 ng/ml
[25] = molecular target: MHC class II molecules on MHC class II-expressing Raji cells (human); assay: direct ELISA, plate-immobilised Raji cells; 3% gelatin, 10,000 cells; 500 ng/ml
[26] = molecular target: MHC class II molecules on MHC class II-expressing Raji cells (human); assay: direct ELISA, plate-immobilised Raji cells; 3% gelatin, 5,000 cells; 1000 ng/ml
[27] = molecular target: MHC class II molecules on MHC class II-expressing Raji cells (human); assay: direct ELISA, plate-immobilised Raji cells; 0.5% Casein, 10,000 cells; 62.5 ng/ml
[28] = molecular target: MHC class II molecules on MHC class II-expressing Raji cells (human); assay: direct ELISA, plate-immobilised Raji cells; 3% gelatin, 5,000 cells; 62.5 ng/ml
[29] = molecular target: MHC class II molecules on MHC class II-expressing Raji cells (human); assay: direct ELISA, plate-immobilised Raji cells; 3% gelatin, 5,000 cells; 250 ng/ml
[30] = molecular target: MHC class II molecules on MHC class II-expressing Raji cells (human); assay: BLI; IMP321 sample at 150% binding potency, Raji cells in solution; relative to reference standard
[31] = molecular target: MHC class II molecules on MHC class II-expressing Raji cells (human); assay: direct ELISA, plate-immobilised Raji cells; 0.5% Casein, 5,000 cells; 500 ng/ml
[32] = molecular target: MHC class II molecules on MHC class II-expressing Raji cells (human); assay: BLI; IMP321 sample at 100% binding potency, Raji cells in solution; relative to reference standard
[33] = molecular target: MHC class II molecules on MHC class II-expressing Raji cells (human); assay: transfer cell ELISA, Raji cells; 500 ng/ml
[34] = molecular target: MHC class II molecules on MHC class II-expressing Raji cells (human); assay: direct ELISA, plate-immobilised Raji cells; 3% gelatin, 2,500 cells; 125 ng/ml

## IMP321 treated with Peptide-N-Glycosidase F (PNGase F) (Fc fusion)
[1]
  OD (ELISA signal): 0.281 OD
[2]
  OD (ELISA signal): 1.32 OD
[3]
  OD (ELISA signal): 0.206 OD
[4]
  OD (ELISA signal): 0.02 OD
[5]
  OD (ELISA signal): 0.297 OD
[6]
  OD (ELISA signal): 0.012 OD
[7]
  OD (ELISA signal): 1.36 OD
[8]
  OD (ELISA signal): 0.476 OD
[9]
  OD (ELISA signal): 0.642 OD
[10]
  OD (ELISA signal): 1.3 OD
[11]
  OD (ELISA signal): 1.63 OD
[12]
  OD (ELISA signal): 0.294 OD
[13]
  OD (ELISA signal): 0.076 OD
[14]
  OD (ELISA signal): 0.01 OD
[15]
  OD (ELISA signal): 0.594 OD
[16]
  OD (ELISA signal): 0.878 OD
[17]
  OD (ELISA signal): 0.91 OD
[18]
  OD (ELISA signal): 0.082 OD

## IMP321, recombinant soluble human LAG-3Ig fusion protein (Fc fusion)
[19]
  Potency determined by BLI assay: 80%
[20]
  OD (ELISA signal): 0.223 OD
[21]
  OD (ELISA signal): 1.88 OD
[22]
  OD (ELISA signal): 0.176 OD
[23]
  Potency determined by BLI assay: 55%
[24]
  OD (ELISA signal): 0.823 OD
[25]
  OD (ELISA signal): 1.55 OD
[26]
  OD (ELISA signal): 2.31 OD
[27]
  OD (ELISA signal): 0.142 OD
[28]
  OD (ELISA signal): 0.464 OD
[29]
  OD (ELISA signal): 2.1 OD
[30]
  Potency determined by BLI assay: 150%
[31]
  OD (ELISA signal): 0.206 OD
[32]
  Potency determined by BLI assay: 98%
[33]
  OD (ELISA signal): 1.81 OD
[34]
  OD (ELISA signal): 0.77 OD
